Data taken from the DeepSol protein solubility set.

Assay: soluble on expression in E. coli; label from the status in PepcDB or PDB records

Soluble on expression in E. coli, not soluble:
MGSDKIHHHHHHIEAQIKEDLDLIRNGTSLLSLIPNFGMEAVTPWLDEFERGLMYELDFKREIKNIAFFRDMYRDRDDVKIPRPYSRLSTEDVIVMDYTPSVPIVRPFKAERLINMFLEQLLYEGVIHGDLHTGNIGLDSKTGSLVLYDFGNIINITSQYKTAIRDFVYGVQTGNVDAVMDNMVKMGMNVRDREVTRIFVKQYFDYLQTLDLTSFTINSPEIREKASKVPVELDSTTLTILRTYSLLEGLAKELDPSFSYARIINKNVELLFLDLEYIMYRIQKDTSS
MGSDKIHHHHHHMDNLPDKLQNIVEEVDHQIAPKLEEIEDQIVYNQAKVLKAFQDNNVAEADLNGATGYGDDDIGRDKLDKVYAQVFDTEDALVRPQFVSGTHTLFTALSGNLKYGDTLTYLTGMPYDTLQKVIGLTDDKRGTLAEKGVKFSYVPLSDENLIDYDVAEKILKRDQPKMVAIQRSRGYSTRKTFTVEQIKEMISFVKKVSPNSIIFIDNCYGEFAEKYEPTEYGADLMAGSLIKNAGGGLAKTGGYIVGKKDLVENAKLQLTAPGCTDEGATIGHLHDLYEGFFLAPNVTGMAEKGMIFAAALFEKMGLNVTPAWDEKRSDIIETIIFNDPEKMVKFVQEVQKNSPIDSFVTPEAVHMEGYEDKIIMAAGNFVSGSTIEFSADGPIRPPYAVYMQGGLTYAHDKVAIINSVRDTFFNKK
MEQPEKNIKLAYDGEIHLAVGASKTEKKWKNRQMSWSDFTQRLKTPTVTQETVEDYKKMPKSKQGEVKDVGAFIGGWLKEGRRKRGNTQQRSLVTLDADSTTLDFWDDVQLLFDHAAAVYTTHSHLVKGPRYRLIIPLSRPVTAEEYEPLARKLAEFFGMDNFDDTTYQAERLMYWPSHSIDGEYFTDNIDLPWVDPDEILSQYEDWRDASFWPESSRGHSIRERQAKKAGDPLEKKGIVGAFCRTYDIISAIETFLPDIYGSTGREDRWTFLEGSTSGGLVIYDDKFAYSHHGTDPVGDQLVNAFDLVRIHLFGDLDEDVKPTTRIDRYPSFKAMREFAMEDKQVKTLIQSEKLSQALEDFDGELDELEEDDKDWFTKLDLEIDEYGQIMASAKNLEVIMLNDPNLKKKIFMNSFSNRIEVKDNLPWRKLDRDKMWKDSDDAGLRVYIEKIYGIVNRGKIDDALVQEIERNSYDPVKEYLESLHWDGVPRVETLLIDYLGAEDTPFIRVVTKKFLTAAVGRIFVPGIKFDYMLVTSGPQGIGKTLLPAKLAGDWFSNSLEGVTGKDSYEALQGVWIMEMGELSATKKADIEATKHFISKQEDIFRVAYGRHKSYFKRRCVFWGTTNDNEFLRDKTGNRRFWPVDVGIQPIKNKVWEMTDETRNQIWAEAVELWQAGEPLYLTDEQEKLALEAQEMHTETSSMEGEILEYLEIPITEDWYKRSKQERREYIQGWGTDIQEEGEIVRNKVCIAEVWNELYNGDSKNIHPAKAAEIRQVLSHLSGWEKNSKGNKGRLRFGPGYGVQVAYLRVTP
MHCSLYTRFNVENAGGDFSVGGARVCFRIPENPCSPRPAVAGRANPLPPVADFGMKEVRTKKKKHMTNDVNGMKKKCGRPALGRTRKLTRGVTVKFSPVSYEALRFRAGKSGRSLAVYIREAALAATVTARHTPEENALLRSLAGMANNLNQLTKLSHQTGFYRTRLLIEGLLGKLKRIMDDYRPKGG
RFNLFNYREATLIADYGHNPDAMEALVCAIDHIPAKKRTVVISAAGDRRNEDIRLQTRILGDVFDEVVLFQDKCQRGRADGEVLGLLREGLENAKRVRKVSEIRGEFKAIDTALTNLEAGELCLILIDQ
MSYNEKSEAIIKEEWLQRLEQFPFKQADMNRLIMNYLVTEGFKEAAEKFQHEADLEPSVELSSLDGRILIREAVQAGRIEEATQLVNQLHPELLGSDRYLFFHLQQLQLIELIRAGKVEEALSFAQSKLSESGEEAMFELERTLALLAFEKPQESPFADLLEQSYRQKIASELNSAILRCEQSEDSTPKMMFLLKLILWAQSKLDSRSISYPKMKNLETAHLEPKLEHHHHHH
MKVSEKTYLSIEEIISLPTVSSTNISDDGKNVAFVKRTANWEDNTYRNHVWIYEKDKGKSYPLTTGDIDSIHPLWSPDSKSIAYLSSGGDGDMKNQIFVKSLDDYSKVKITDEKEGISNFKWDPTGKGFYYITQSKECEEIKKRKELYGDFQHVGKEHQNNCLCYIEMEKVIQNDKEEREINGVYQLTGGKDFYIHGFDISDNGKKVVCMATPSLNDHMNGDLYILDVEARELQQMNVDKLLGGSACFSPEGNKICYSASIREKEYYRNHIQESTLEIYDMNTGEVIQPLTNFDSMVMPLQWTAKGILIRWQDKTNYFIGLLAEDGTVETLREKVDGFIMDASITRDGNHITYNKAITNETFEIYLDDKKITNENSLFEGKLKSNREIISWRSSDGLEIEGVLSTPVEFDANKKYPLLVVIHGGPAWASFPIFSNCFNEKYPIEQFVEKGFIVLEPNYRGSSGYGNEFLKANYRKQGLADYDDVISGVDELVEKGMVDKDRVGVMGWSNGGYISAFCSTFSSRFKAISVGGGITNWSTHYVNTDIPYFIRMYLGNTPWNDPDIYKRTSPMTYIKSACTPTLIQHGEKDARIPITNAYELHQGLKDMEVDTELIIFKGMAYSSDQPGVHVAIMKQNLMWFSHYILGESMEDFSTI
MSSLAKLGYFFDEKGVLKTEKDKKPFKFTTQEDYEELGEAVDLEVYELLETRCGLKRKALKLPGKTDEDEDLSFIFVSKNFKKAANLLVLIHGSGVVRAGQWARRLIINDNLECGTQIPYIERAIENGWGVVVMNTNLNESKDQDLKYSRTPVEHAETVWIACIEPSNAKSIYVVAHSRGGYDTASVLKKFGGDDRISKICLTDSPWFEFPKSCAQRARPLFVVNFLAHGALNSPSYKVREYREGNVAELWAGTQIHEWSSHCAIDAVFHILETEMTPSNYAEVMEEAKKLVVKSENSKESDDEAPKSKKICV
MSLKNGKIANIGLINYVDLGKIIIKAKEEGKTAVDFKAIEDIMPWDEFVSSINETSEITRPKEYNSLDLIAEKYSTLRKYTPRLLKILEFKASKKGEPVLKAMETIKELNANTKRKVPKGAPLDFVTNQWEKYVYDQEGNIDKKYYELAVFTELKNAVRSGDISIVGSKQHKPFEEYLITDSEWEKYKAENTDFKVSLDAEEYLKARLDLLNNKLKYVSDNIKKLKGVSIEDNKFVLSRLEKAVPDEAKELATKLYSLIPRVNLSDIIIDISKFTAFDNNLIHASTNKEPKDNERSCITASLMALGTNIGLKKMEQAVKGISYKQMSNVVNWRMSDDNMEKAMAAITNYHHRQPYAVHWGDGSTSSSDGVRVKSAVEALNASYNPHYGLEKGVTMYSAVSDQYSRFGVGIINTNSRDAIHIIDILLNHRTELEIEEHYTDTAGYTDQVFGLTHLLGFRFAPRLRDISDCKLYCIEGKEDFRNIQSVIKGKINTKIIKENYDDILKPVSSIKEGKVSGSLIMGKLGSYSRQNSLAKALTELGKIEKTIFILDYLSDEDFRRKIQIGLNKGEAMNALARAIFFGKYGMFHEKDIQGQLQRATALSIIINSITLWNTMYLPKAVEKLKEKEGVDESLLRHVSPLGWEHINFIGQYNLDDSSDYNLIDNMRPLREILQEGHHHHHH
MGSDKIHHHHHHMTTATHPNDALFAGEKSFPVLAACEHFAGSEKLIGKAMDLQVEYGPVFDVTCDCEDGAAAGQEREHAEMVARMIASDRNVHGRAGARIHDPSHPAWRQDVDIIVNGAGGRLAYITVPKATNSGQVAEVIRYIGDVAKRAGLDKPVPVHVLIETHGALRDVFQIAELPNIEVLDFGLMDFVSGHHGAIPAAAMRSPGQFEHALLVRAKADMVAAALANGIVPAHNVCLNLKDAEVIASDACRARNEFGFLRMWSIYPAQIQPIVNAMRPDFTEVEDAAGILVAAQDADWGPIQYKGELHDRATYRYFWEVLQKAKVTGMAVPAEAERRFFVN
MGLFDRLKRVVGANVNDLINKAEDPEKMLEQAILEMQEDLVQLRQGVAQAIAAQKRTEKQYNDAQNEINKWDRNARLALQKGDENLARQALERKKSFTDTSTSLKTSLDQQTIQVDTLKKNLIQLESKISEAKTKKEMLKARITAAKAQEQLGSMVVSMNSSSAMAAFERMEEKVLMQEARAQSTAELVGADLETQFAQLESGSDVDDELAALKASMLPPAPAPQGQLPPSQATTAKPTEPIDSDLEALKRQLDQM
MLLVSDIQTIQPSLNSVNEGGQKIKNEAEPEFASRLETELKELNTQWDHMCQQLEHHHHHH
MKKVAVLLAPGFEEAEAIVTLDILRRLHIDVETLACAESRAVVSYHDIPMVADSTLSERQQALFDAVVLPGGPQGSANLAANPAVIAFVARHDAAGKLICPICSAAARVLGAHGLLKGRRYVCSGDLWKAVPEGVYVDAPVVEDGNLISGKGLGHVFDFALTLSARLLGDDAPVREQAEHIYYPW
MGSDKIHHHHHHMTHSTDITTLARWFAADFSNQQQAFDNPPLFAHIRVCMRPLPYQLLNGLSLYLEQAYDITLNQPYRVRVLKLVPSENHIEIENYIIDQEAEFYGASRDPQRLKNLKTEYIKKLPGCTFITKWTGKSFKGEVEPGKGCTVVREGKSTYLKSYFEINEHKFISHDTGYDPETDQQVWGAIAGPFEFVRWASFADEVI

Soluble on expression in E. coli, soluble:
MGHHHHHHSHIVERVIEATLPTKFYGTFRAVGYKTPLGEIVALVKGRVDEGDVLVRIHSECLTGDVFHSLRCDCGDQLENALKMIDREGKGVAIYMRGHEGRGIGLINKLMAYKLQEEGKDTVDANIELGFPPDMRSYGIAAQILMDLKVKSIRLLTNNPLKIEELKKYGFKIVREPIE
HMAEIYLAGGCFWGLEEYFSRISGVLETSVGYANGQVETTNYQLLKETDHAETVQVIYDEKEVSLREILLYYFRVIDPLSINQQGNDRGRQYRTGIYYQDEADLPAIYTVVQEQERMLGRKIAVEVEQLRHYILAEDYHQDYLRKNPSGYCHIDVTDADKPLIDAANYEKPSQEVLKASLSEESYRVTQEAATEAPFTNAYDQTFEEGIYVDITTGEPLFFAKDKFASGCGWPSFSRPLSKELIHYYKDLSHGMERIEVRSRSGSAHLGHVFTDGPRELGGLRYCINSASLRFVAKDEMEKAGYGYLLPYLNK
MSLDVNYVPQNTSDAPAIPSAALQQLTWTPVDQSKTQTTQLATGGQQLNVPGISGPVAAYSVPANIGELTLTLTSEVNKQTSVFAPNVLILDQNMTPSAFFPSSYFTYQEPGVMSADRLEGVMRLTPALGQQKLYVLVFTTEKDLQQTTQLLDPAKAYAKGVGNSIPDIPDPVARHTTDGLLKLKVKTNSSSSVLVGPLFGSSAPAPVTVGNTAAPAVAAPAPAPVKKSEPMLNDTESYFNTAIKNAVAKGDVDKALKLLDEAERLGSTSARSTFISSVKGKGEGHHHHHH
MIIDQQLVCYKRLPNWTATTLPEMVTQKHNTKVGTWAKLTILSGTLHFYELDEQGEITAEHLFTPETEIPFVEPQSWHRIAAASDNLECYLSFYCKPEDYMAKKYDTKAHSEVLEAVQSGHIKPGRTLDLGCGHGRNALYLASLGHEVTAVDINNEATQRIQMIADEESYNVRAGYYDINVSALPESETFDFILSTVVFMFLDPNQIPAIIQNMQERTSIGGYNLIVCAMDTEEHPCTMPFPFTFEEGELKNYYSDWELIKYNENLGHLHRLDEHGNPIALQFATMLAKKVTLEHHHHHH
GPLGSEQIGKLRSELEMVSGNVRVMSEMLTELVPTQAEPADLELLQELNRTCRAMQQRVLELIPQIANEQLTEELLIVNDNLNNVFLRHERFERFRTGQTTKA
MSLKRIKTVLAATDLSAPARHAAMRAALLAGQTDAKLGLLHVVDLQLMEHLRSFAGRSGEAAERRLIGEAMKELERLATDMTHRWGSAVEVRLVVGAVLKEIVAHADTLDADLLVMGARGAGFVRELLLGSTTERVLRLITRPVLMVKQIPHGPYQRVLVAVDFSERSVAALRLARWVAPEAHFVVLNAFQPPLENKLRQGGADEFEIMELRDAARRDADARMDEVMAHAGFPAERLTRLVLPGPALDCVLEQEQEQDCDLIVVGKHGYGWIEEMLLGSLTKHLLALSSCDVLVASQSREGHHHHHH
